The values that follow come from a protein production outcome set (Wang et al. 2014).
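Note: failed if final PepcDB status was selected cloned or expressed and not failed if soluble or beyond.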

The data set is described as follows: label from the status in PepcDB records.
For “MLFEQIAANKRKTVFIILGFFIFVLMVGAAIGIIVWNNYLNGLILAAAIGAVYILIMVMSSSSVVMAMNHAKEVTSKEQAPVLWDTVESMAMVAGIPMPKVYIVEDPSPNAFATGISPEKGAVAVTRGLLNKLERYELEGVIAHEISHIRNYDIRLSTIAIALVAVIAILSDLAMRLIFWGSLTGGRNSRKSDNNNGGGAQIIIYVVALIFVILAPIIATAIQFALSRNREYLADASAVELTRNPDGLIQALQKISGDTKKMEEVSASSESIYFSSPLKSKKDKPGLFDSHPPISSRIERLENM”, the protein production result is “failed”.

“MLFESINTGCLDGNDTPWMPFAPYSNDVMVKYFKIDPVRGETITLLKAPAGMEMPRHHHTGTVIVYTVQGSWRYKEHDWVAHAGSVVYETASTRHTPQSAYAEGPDIITFNIVAGELLYLDDKDNIIAVENWKTSMDRYLNYCKAHGIRPKDLSTFEG”: the protein production result was “not failed”.

For “MLFGGNRNKMLKTIITSAITYSSTAIDLLIILMLFFAKIKDKKGIRDIYIGQFLGSDVLILVSLFFAFILHYVPDKRLLGLLGIIPIFLGLKALIFGDSDGEKMANKELNNNNNKMNLIKTLMFITIVSCGADNIGLFVPYFISLTPLNLVITLIVFLIMIFLLVFVAQKLANVPTIGEVLEKYSRWFIGFVYIFIGGSVLIENGSIQFIINLFK”, the protein production entry is listed as “failed”. The same measure for “MLFIAFAPFGAFALEANSKNDGYSLDDIKYYKIFENEDIPKIMYALRQGDFEIIAELKNEWEIEEEDVSFEYTTSKNPLGELIRDNLYELGQKYEVFEDESDFVSKMNVWATAFTKSMMKKSSEQKDKLIVQTVNALDNLDETLNLFSERLREWYSLYFPEMDNIVKKHDIYVSLVSEYGDREEYTRTKLKKTMPSNVARTISLAAKESMGADVSEFDLKIMKNLADEIKSMYEYRESLQEYLETSMNEIAPNLTKVAGASLGARLISLAGGIERLLRLPASTIQVIGAEKALFAHLRERALPPKHGVIFQHPLIQGSPWWIHGKIARAISCKISIAIRADAFGNDISDMLIEDMNKKVAEIKEKFPEPTRKRRPRPDTRSFGNKGGQDRDRRSQGDRKPSGNRGDSKKGGKPFGKKPAGKDDRRDNRKGDRKPFGGKPKNSGNQPPKERSGEKRRDSTKKVKAERKVIGKTSSQNLEHHHHHH”: “not failed”; for “MLGAPAHRAASAAPVIRRTKGPDMPTRLTALLSPSRPSRPSRDDAAGPVAGTARPARGAGWATALSLALVCFVTYAALSVRLHQRMLTTGYDLGIFEQAVRSYAHGHLPVAELKGPGFPLLGDHFSPVLALLAPLYRVWPAPVTLLVAQAALFAVAVIPLARWAEEVRGRRAALVVGLGYGASWGVAQAVGFDFHEVCFAVPLLALSLTAVGRGRARAAALWALPLLLVKEDLGLTVAVVGLLIARTGERDDRRRGGALVLAGVLGSFLEMLVVIPAFNPGGTFAYSSSVPGAGSATPGAGELLLHYTVGLVTPDTKAQTVLALLSVTGFLAVRSPLLWAALPTLLWRFASDNQAYWGTGYHYSAVLMPVLFAAFVDALTRPGPVRYALAASAAVTVLLLPQFPLWQLTQPATWHTDSRLASARRLMDRIPDGATVAASNRLVPQLTNRARVSVFGLGGSRPDAEWIIDDSAQPQGWPIAPDDDRRLLSEVRNNGRYRTVADQDGYVLLQRRP”: “failed”.

“MLGEFKHYKTRLAHGGIPQEVQNLLLEYGVEIFAEMLVEGLSRIKRCTDEGRVLMSLDLQVLINGLQHFVPTKVKPKLQIVETFIKAYYLPETEYVHWARAHPEYTKAQVVGLVNLVATMKGWKRKTRLEVIEKIESASM”: the protein production result is “failed”. The same measure for “MLGKDYMLAIILVNCDDDLWGDHSLEVEAGLPPGWRKIHDAAGTYYWHVPSGSTQWQRPTWELGDAEDPGTGTEGIWGLRPPKGRSFSSLESSLDRSNSLSWYGGESYIQSMEPGAKCFAVRSLGWVEVPEEDLAPGKSSIAVNNCIQQLAQTRSRSQPPDGAWGEGQNMLMILKKDAMSLVNPLDHSLIHCQPLVHIRVWGVGSSKGRDRDFAFVASDKDSCMLKCHVFCCDVPAKAIASALHGLCAQILSERVEVSGDASCCSPDPISPEDLPRQVELLDAVSQAAQKYEALYMGTLPVTKAMGMDVLNEAIGTLTARGDRNAWVPTMLSVSDSLMTAHPIQAEASTEEEPLWQCPVRLVTFIGVGRDPHTFGLIADLGRQSFQCAAFWCQPHAGGLSEAVQAACMVQYQKCLVASAARGKAWGAQARARLRLKRTSSMDSPGGPLPLPLLKGGVGGAGATPRKRGVFSFLDAFRLKPSLLHMP”: “not failed”; for “MLHDTPLITTIVAGLCLAFLLGMIASRLRISPLVGYLLAGVIVGPNTGGFRIDSGIINQLAEIGVILLMFGVGLHFSLKDLLSVKAIAIPAAIAQMAFSTFLGSCLGLIMGWGLSSSVVFGLALSTASTVILLRALQERHLIETEKGRIAVGWLIIEDLAMVLILVLIPSLANILGNTKKEAIDPLIQWLDLSIWGIFGLTILKVILFIILMLVIGRRVIPWLLKVSAHSGSRELFRLSVFATALGVAFGAAHLFGVSLSLGAFFAGMVMSESELSHRAAEESLPLRDAFSVLFFVSVGMLFDPGKILSHFFPLLATLFIIIIGKSAGAFFILKAFRYSNATACTISASLAQIGEFSFILAGLSLSLGLLNNDAHDFILGGAILSILVNPLIFIAFDKIKKHLENLPKNSQDTQKIIDIDPKDPDQEFLPMTSKTNHIVIIGYSRIGKCVALSLINRGDPVVIVEESKRLTDKAIADGFEVICGNIIKQDVMNAANMSNAYKVVITMCNTIEVGECIVNIRDMNKDIQIITHTLSDVDTAYLIDLGADIVVTDEEEIANGVIEHITGQRFIKNIAQS”: “failed”. In the case of “MLHLQTFGDLRLIETNGDAIRYPIKGLLMMAHLYAGASHELSRYELAQFLWNDVESELARLNLRKLLSRIRETDGGRAEIPFDFTATTVRLNTQAVSSDLDIFRAGGSPLERLNAIAELTQRGFIGNIKPATKLIEAWIRAQRDAQALQLRQALLDALPDAQKPGAARSISGAALQILERDPNDEQVRALLHQLSGGSSLSERLPNGDGHARVQVKRSEAGGETTADIERVSQAPLILPRLVLLPPTSKHADAGLALANALIEDVTIELCALRNISIVAPHTAGQIRRDSEKAAVVARHSIAYLLDTRLSEEGLFAQLVYFPTDEIIWANRFTMTPDILPRQRRLIAQQLTMSVARELAENEEERLRFEANPEAYHAYLVGSSLMSKLTLPHIRRARKAFKQSLSHKADFSPSFTGLARTFTSEWLVTAQGNNELLHLAEQNALRAIERDPASAAGHRELGVTKLYLGDVDASVAALDLAEQLSPHFADVIYSHADTLVHASRPGDALAKIRRAISLNPIAPDAYLWCAAGASFFLEQYEEAIAYVEAMKDKAPAHRIAAASCAMIGDRKRALFHRQRAESINPVFDVEKWLAIVPFKEDWQKELYREGLLKAGF”, the protein production result is “failed”.

For the sequence “MLIDKKTQAGVKSIIGWQHCAHFYRQNKLLGLFTKIKRPTKGQRMEEELKQQFDEMGVEPADAVLGRCAELAITYNIHDATEFVEQWMAFSLSHLQGEDPAIENLGDFERKVLQLRKDKAGYKATGQKAKSYGSPSVQDTSSLATYGVMEDDPMLDDYVSESAVDSSALHTPKAKKQSDRTANLKGAALFSPASYTPQSAKRKAGLETPSNSVAGKPGDIVDTFGHPKLLAGSSWQSQMEHTVPVTQKLLHNDAPLTIANLGYMNDLLTDRCHNLRVRFNQTGPALVDKKLGQAGAAECIWYPQDRQVLQSAGGLHAVGMIHSEDDGPLDAHSAFMAVLDDDVEDEMDPTLTLNFSRVKSASIFPGQVVLAKGFIPRGKTFMVEEIHTERKLTPATPLQIDRELQFVVASGPFTDSTDLFYEPLHDLLKYLKDHRPDVLVLTGPFLDADHKMVGELAETFDTFFEKMIGGIMESIGSHTAVLVVTSQKDAMALSVYPTPPPALRRTYPNLYMLPDPSLVDLDGFTLGVTSTDVVDHLLSHEFAVNAGERMHRAINHLFHQGSFYPLYPPADEDMAYDSQLALKYAQLKQLPNVLILPSDQRHFIRLVNDCLVINPGRVADKKGGTFARFLVAPSVPGKAANMFNSVACQVQRI”, the protein production result is given as “failed”. The same measure for “MLIDPIELYRYPEKWIKDRDAEKKVRSGLYILTEDGYLRRGITTGTTASAAAVAAIASLKEKVEKVKVSTPAGVDVEVEVEAEKGFARVRKFSGDHEFDVTNGIIFEAEVCETSGIFFGRGVGVKAGEKAVSRSAKLQILENFIKASREFNFSGGVRISVPDGEEVAKKTGNEKVGIKGGISILGTTGFVEPWCKKLVETKLKIAMQYHRIAITTGRKAWLYARKKFPEYQPFVFGVHIDEALKHPGEKIIVGFPGLLKIWAGSRDRIEERAREEGVRVVVIEDDMDSWVWDVQGTDH”: “not failed”; for “MLIFKIFRRSEWDDFRRAGATAGAPVDLADGYIHFSTAAQVAETAAKHFTAESDLVLVAIDPDRAGPDLKWEPSRGEQLFPHLYRRLTLDDVVWDKSLPLGATGHIFPEGLWLEHHHHHH”: “not failed”; for “MLIKRLAFAIMTLVIMTSAGCGFKLQRSYQIPEQLNQLSLSSSDEYSELTRLVRERLRLNNVKIVDAANDVPVLRLITDSLERSTLSLYPTGNVAEYELIYFVEFAVALPGKEAQPFKIEIRRDYLDDPRTALAKSREMELLVKEMRIQAADRILQSMASTEVNLEHHHHHH”: “not failed”. The same measure for “MLILSTEKEPNFEYEEITRSFLSNMLAFTRGHFTGDISHFSPIVLAEMEKDPNWLEEAAGGMQGVIVQSLLEDENFSSVEQLKGELARLIRLYFALAKDNLTENQESLYVDLFDKFTFLLLCSDEFIMYLDSQPKF”: “not failed”.

Turning to “MLIRAIPFVFVILWASGFVGARFGLQYAEPATLLSIRMAFNVLLFLVLVAVLRRRLPTGTDFWHSCVVGALIHGFYLGGTYFAIALGMPAGLSSLLVGIQPILTAALLVAFVREEFKPSQWLGLALGFVGIAMVLMGKMEWQSEQHKVLAIGLCLLALVGITLGTLYQKKHCQQVDMVGGATVQYLAALIMFLPVAMQFETMQVQWELEFILTVLWLVVVLSCVAILLLLYMVRNGASSSVASVFYLVPPTTAIQAWLAFGESFDWMGISGFVLAATAVYLVVKKPDLTIKKAIKTEYT”, the protein production result was “failed”.

In the case of “MLIREAKLAGTPEQFAQLDAAIRTAQCVHNRCLRYWRDNAGVSKNDLQKFCAVLAKDAEQPWMGLLNSQARQAAAERTWQSIQSFYRRCKEGAKHKGYPKFKKHSRSVEYKTSGWKLSDDGMSITFTDGFKAGQLELWLDGSARQLILSSKINRVRVVRRADGYYAQFCLDVERQEAGVYSGNVIGLDLGLKYFTKDSNGAEVACPKFFRKGEKRLRRAQRRLSKRFKKGAKPQSKNYHKQRQRIGKVHLKIQRQRKSWAIEQARRVMVSNDIVVYEDLRVPNLVRSRHLAKSIHDAGWTQFTHWLDYYGKLWRKVVVAVNPAYTSQDCSGCGYRVQKSLSTRTHDCPHCGLTICRDQNAALNILKRGLEVVGAEWNNGTAGHAETGSQEQTTGEISTSAEVGQPTSVSAVAEPVRTSREAV”, the protein production result was “failed”. With “MLIRKITRKNPSPDVLEEAISVMEGGGIVIYPTDTIYGLGVNALDEDAVRRLFRVKGRSPHKPVSICVSCVDEIPRFSRPSGDAMELMERILPGPYTVVLERNELIPDVITGGSSRVGIRVPDDEICRRIAARFPVTATSANISGKPPSPRLEEIVRDLDAVDLVLDAGDCLDMEPSTVIDLTVNPPRVLRRGKGPLDPVLLRGAGDV”, the protein production entry is reported as “not failed”. The same measure for “MLIRPFLQYILGAVLLAYVLYPLQIRLETYVSPMLAALSLVTLAVTGFVAPVVVVLASIMESADRILREFGTDPVQLDILESRIKGLTGVEVDIAGELVSSGRDIGTIIVERSTQAFSTITFHLIGIALALFLIYYLLKDGDDLVDWLHRTVPLPVDVQRDFYAEIDDVMLGVLFGHVFVAIVQGIVAGVGLAATGVPNAMFWTAVMVVLAMVPLIGTIPVWGGAVIYLYATDEPLLAVGLFLYSVIIVGLTDDYLRPFAVDRYAKLNPAVILLGILGGAYAFGVMGLLFGPVVLGALKAALRVGLDTWSQIDDGNIG”: “failed”.
